# T1: human transglutaminase type 2 (TG2) (human, UniProt P21980 1-687)
# T1 sequence: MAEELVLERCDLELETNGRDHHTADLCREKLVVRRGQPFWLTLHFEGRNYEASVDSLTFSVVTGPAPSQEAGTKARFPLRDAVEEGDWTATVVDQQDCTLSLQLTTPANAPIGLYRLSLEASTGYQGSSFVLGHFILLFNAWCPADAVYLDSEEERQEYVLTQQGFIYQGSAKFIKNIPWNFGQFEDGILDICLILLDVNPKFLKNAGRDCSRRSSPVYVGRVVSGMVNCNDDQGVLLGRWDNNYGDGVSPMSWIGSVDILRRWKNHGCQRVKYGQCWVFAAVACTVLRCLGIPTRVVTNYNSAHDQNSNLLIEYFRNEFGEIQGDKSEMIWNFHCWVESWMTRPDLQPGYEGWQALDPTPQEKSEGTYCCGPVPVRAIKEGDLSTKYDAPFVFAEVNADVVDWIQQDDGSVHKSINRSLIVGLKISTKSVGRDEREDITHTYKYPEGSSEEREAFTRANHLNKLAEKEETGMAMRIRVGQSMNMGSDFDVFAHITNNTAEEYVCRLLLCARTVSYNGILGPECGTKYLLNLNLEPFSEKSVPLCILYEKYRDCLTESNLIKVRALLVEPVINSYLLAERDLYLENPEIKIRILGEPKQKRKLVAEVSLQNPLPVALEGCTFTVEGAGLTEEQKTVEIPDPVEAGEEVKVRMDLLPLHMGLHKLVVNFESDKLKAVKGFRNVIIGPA
# T2: cynomolgus monkey TG2 (cynomolgus monkey, UniProt A0A2K5VXI8 1-687)
# T2 construct: Bought recombinant protein; also called cynomogulus monkey TG2; cyano TG2
# T2 sequence: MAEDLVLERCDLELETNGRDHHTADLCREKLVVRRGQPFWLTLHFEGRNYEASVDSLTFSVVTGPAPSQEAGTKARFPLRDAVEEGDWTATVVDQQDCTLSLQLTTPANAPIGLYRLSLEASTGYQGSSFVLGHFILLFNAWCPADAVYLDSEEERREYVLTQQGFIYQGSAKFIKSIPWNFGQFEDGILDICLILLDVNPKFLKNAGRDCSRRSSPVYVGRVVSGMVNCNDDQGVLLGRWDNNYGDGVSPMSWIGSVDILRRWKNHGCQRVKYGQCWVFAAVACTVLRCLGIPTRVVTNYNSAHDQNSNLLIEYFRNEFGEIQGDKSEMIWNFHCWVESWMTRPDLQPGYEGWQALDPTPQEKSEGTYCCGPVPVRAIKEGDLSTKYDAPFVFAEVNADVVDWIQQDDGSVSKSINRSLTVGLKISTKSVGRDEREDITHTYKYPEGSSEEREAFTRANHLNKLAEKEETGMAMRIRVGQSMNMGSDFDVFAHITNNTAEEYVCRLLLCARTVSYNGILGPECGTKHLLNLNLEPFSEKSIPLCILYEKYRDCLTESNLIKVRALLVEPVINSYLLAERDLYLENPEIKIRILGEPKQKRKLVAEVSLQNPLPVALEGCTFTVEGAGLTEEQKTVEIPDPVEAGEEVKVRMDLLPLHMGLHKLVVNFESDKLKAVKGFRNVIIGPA
# Experiments:
# [1] = molecular target: T1, human transglutaminase type 2 (TG2); test: cell-based or functional assay
# [2] = molecular target: T1, human transglutaminase type 2 (TG2); test: SPR (Biacore T200), antibody captured on anti-human IgG1 Fc chip, TG2 injected; +Ca2+
# Description: (§1) Recombinant cynomolgus monkey TG2 was obtained from Trenzyme. Surface plasmon resonance (SPR) was measured on a Biacore T200 instrument (GE Healthcare). CM5 chips (GE Healthcare cat. no.: BR-1006-68) were coated with monoclonal mouse anti-human IgG1 (Fc) (MAH) antibody (GE Healthcare cat. no.: BR-1008-39) by amine-coupling as described in the manufacturers instructions. HBS-EP+ buffer (0.01 M HEPES, 0.15 M NaCl, 3 mM EDTA, 0.05% v/v Surfactant P20) and HBS-P+ buffer (0.01 M HEPES, 0.15 M NaCl, 0.05% Surfactant P20) were purchased from GE Healthcare as 10× stocks (cat. nos.: BR-1006-69 and BR-1006-71). Calcium Chloride solution was obtained from Sigma Aldrich (cat. no.:21115).
# (§2) The method employed to determine the affinity of the anti-TG2 antibodies involved the capture of the chimeric or humanised antibodies on a MAH coated CM5 chip, followed by the injection of a series of TG2 samples in running buffer. The running buffer was 1×HBS-P+ containing 1 mM CaCl_2, or 1×HBS-EP+ for calcium-free experiments. Antibody capture was carried out for a contact time of 120 seconds at a flow rate of 10 μl/min resulting in the capture of approximately 40-80 RU. TG2 was injected over the immobilised antibody at concentrations ranging from 25 nM to 400 nM with a contact time up to 600 seconds at a flow rate of 30 μl/min. Dissociation of TG2 was typically measured for up to 5400 seconds (1.5 hours). Regeneration of the chip was then performed using 3 M MgCl_2, for a contact time of 60 seconds at a flow rate of […], followed by a 300 s stabilisation period before the next sample. For each of human and cynomolgus monkey TG2, at least 5 injections at a variety of concentrations were performed in at least two separate experiments.
# (§3) Kinetic data were exported from the Biacore T200 Evaluation Software and analysed using GraphPad Prism, where the association phases and dissociation phases were analysed separately using a one phase association model and one-phase exponential decay model respectively. Association rates ($kon$) were calculated for each curve individually, and dissociation rates ($koff$) values from the long dissociation phase data collected. Where $koff$ values were calculated to be $<1\times10^-5$ s^-1, values were set at 1×10^-5 for analysis, as rates slower than this could not be estimated accurately.
# [3] = molecular target: T2, cynomolgus monkey TG2; test: as above
# Description: as §1, §2, §3
"IC50, 3H-putrescine incorporation assay [1]",Kd [2],koff [2],kon [2],Kd [3],koff [3],kon [3],Binder
1.1e-05 mg/ml of IgG (to inhibit 1 ng of TG2),–,–,–,–,–,–,"AB1 murine monoclonal antibody (antibody, V domains shown, Mouse hybridoma IgG; heavy chain amplified with constant region primer MHCG1, kappa light chain; also called mAB003) VH: EVQLVESGGGLVKPGGSLKLSCAASGFTLSSSAMSWVRQTPDRRLEWVATISVGGGKTYYPDSVKGRFTISRDNAKNTLYLQMNSLRSEDTAMYYCAKLISLYWGQGTTLTVSS VL: DIKMTQSPSSMYASLGERVTITCKASQDINSYLTWFQQKPGKSPKTLIYRTNRLFDGVPSRFSGSGSGQDFFLTISSLEYEDMGIYYCLQYDDFPYTFGGGTKLEIK"
1.1e-05 mg/ml IgG per ng of recombinant TG2,–,–,–,–,–,–,"DC1 murine monoclonal antibody (antibody, V domains shown, Mouse hybridoma IgG; heavy chain amplified with primer MHCG1, kappa light chain; also called mDC001) VH: EVQLVESGGGLVKPGGSLKLSCAASGFTLSTHAMSWVRQTPEKRLEWVATISSGGRSTYYPDSVKGRFTISRDNVKNTLYLQLSSLRSEDTAVYFCARLISTYWGQGTTLTVSS VL: DITMTQSPSSIYASLGERVTITCKASQDINSYLTWFQQKPGKSPKILIYLVNRLVDGVPSRFSGSGSGQDYALTISSLEYEDMGIYYCLQYDDFPYTFGGGTKLEIK"
–,< 0.05 nM,< 1e-05 s⁻¹,210000 M⁻¹ s⁻¹,< 0.03 nM,< 1e-05 s⁻¹,290000 M⁻¹ s⁻¹,"cBB001 chimeric antibody (murine BB7 variable regions) (antibody, human IgG1, V domains shown, also called chimeric BB7) VH: AVQLVESGGGLVKPGGSLKLSCAASGIIFSSSAMSWVRQTPEKRLEWVATISSGGRSTYYPDSVKGRFTVSRDSAKNTLYLQMDSLRSEDTAIYYCAKLISPYWGQGTTLTVSS VL: AIKMTQSPSSMYASLGERVIITCKASQDINSYLTWFQQKPGKSPKTLIYLTNRLMDGVPSRFSGSGSGQEFLLTISGLEHEDMGIYYCLQYVDFPYTFGGGTKLEIK"
0.000123 mg/ml of IgG (to inhibit 1 ng of TG2),–,–,–,–,–,–,"JE12 murine monoclonal antibody (antibody, V domains shown, Mouse hybridoma IgG; heavy chain amplified with primer MHCG1, kappa light chain) VH: EVQLQQSGPELVKPGASVKMSCKASGYRFTSYVMHWVKQKSGQGLEWIGYINPYNDGAKYNEKFKGKATLTSDKSSSTAYMELSSLTSEDSAVYYCARLSSDYWGQGTTLTVSS VL: DVLMTQNPLSLPVSLGDQASISCRSSQSIEHINGNTYLEWYLQKPGQSPKFLIYKVSNRFSGVPDRFSGSGSGTDFTLRISRVEAEDLGIYYCFQGSHVPFTFGGGTKLEIK"
–,0.64 nM,1.8e-05 s⁻¹,28000 M⁻¹ s⁻¹,< 0.7 nM,< 1e-05 s⁻¹,15000 M⁻¹ s⁻¹,"cDH001 chimeric antibody (murine DH2 variable regions) (antibody, human IgG1, V domains shown) VH: not shown VL: QIVLTQSPAIMSASPGEKVTMTCSASSSVSYMYWYQQKPGSSPRLLIYDTSNLASGVPVRFSGSGSGTSYSLTISRMEAEDAATFYCQQWSSSPLTFGAGTKLELK"
–,0.43 nM,1.3e-05 s⁻¹,30000 M⁻¹ s⁻¹,0.52 nM,1.6e-05 s⁻¹,31000 M⁻¹ s⁻¹,"cDD9001 chimeric antibody (murine DD9 variable regions) (antibody, human IgG1, V domains shown) VH: not shown VL: QIVLTQSPAIMSASPGEKVTMTCSASSSVDYMYWYQQKPGSSPRLLIYDTSNLASGVPVRFSGSGSGTSYSLTISRMGAEDAATYYCQQWNSSPLTFGAGTKLELK"

# Source: patent US10005846 (LIFEARC, dated 2018)
